What was measured:
[1] = target: full-length recombinant mouse PAD4 (mouse) (UniProt Q9Z183); experiment: ELISA, mouse PAD4 on plate, antibody 0.25 ug/mL
[2] = target: T1, Ala mutant SEQ ID NO: 39 (human); experiment: ELISA, peptide on plate (10 ug/mL)
T1 sequence (peptide): EENMDDQWMQDEAEIGY

[3] = target: T2, Ala mutant SEQ ID NO: 33 (human); experiment: ELISA, peptide on plate (10 ug/mL)
T2 sequence (peptide): EENMDDAWMQDEMEIGY

[4] = target: T3, Ala mutant having 3-amino acid substitution, SEQ ID NO: 46 (human); experiment: ELISA, peptide on plate (10 ug/mL)
T3 sequence (peptide): EENMDDAAAQDEMEIGY

[5] = target: T4, Ala mutant SEQ ID NO: 31 (human); experiment: ELISA, peptide on plate (10 ug/mL)
T4 sequence (peptide): EENMADQWMQDEMEIGY

[6] = target: T5, Ala mutant having 3-amino acid substitution, SEQ ID NO: 44 (human); experiment: ELISA, peptide on plate (10 ug/mL)
T5 sequence (peptide): AAAMDDQWMQDEMEIGY

[7] = target: T6, Ala mutant SEQ ID NO: 37 (human); experiment: ELISA, peptide on plate (10 ug/mL)
T6 sequence (peptide): EENMDDQWMQAEMEIGY

[8] = target: T7, Ala mutant SEQ ID NO: 36 (human); experiment: ELISA, peptide on plate (10 ug/mL)
T7 sequence (peptide): EENMDDQWMADEMEIGY

[9] = target: T8, Ala mutant SEQ ID NO: 29 (human); experiment: ELISA, peptide on plate (10 ug/mL)
T8 sequence (peptide): EEAMDDQWMQDEMEIGY

[10] = target: T9, Ala mutant SEQ ID NO: 30 (human); experiment: ELISA, peptide on plate (10 ug/mL)
T9 sequence (peptide): EENADDQWMQDEMEIGY

[11] = target: T10, Ala mutant SEQ ID NO: 38 (human); experiment: ELISA, peptide on plate (10 ug/mL)
T10 sequence (peptide): EENMDDQWMQDAMEIGY

[12] = target: T11, Ala mutant SEQ ID NO: 27 (human); experiment: ELISA, peptide on plate (10 ug/mL)
T11 sequence (peptide): AENMDDQWMQDEMEIGY

[13] = target: T12, TA0096 (peptide antigen corresponding to positions 340 to 356 of PAD4) (human); experiment: ELISA, peptide on plate (10 ug/mL)
T12 sequence (peptide): EENMDDQWMQDEMEIGY

[14] = target: T13, Ala mutant having 3-amino acid substitution, SEQ ID NO: 48 (human); experiment: ELISA, peptide on plate (10 ug/mL)
T13 sequence (peptide): EENMDDQWMQDEAAAGY

[15] = target: T14, Ala mutant SEQ ID NO: 41 (human); experiment: ELISA, peptide on plate (10 ug/mL)
T14 sequence (peptide): EENMDDQWMQDEMEAGY

[16] = target: T15, Ala mutant having 3-amino acid substitution, SEQ ID NO: 47 (human); experiment: ELISA, peptide on plate (10 ug/mL)
T15 sequence (peptide): EENMDDQWMAAAMEIGY

[17] = target: T16, Ala mutant SEQ ID NO: 28 (human); experiment: ELISA, peptide on plate (10 ug/mL)
T16 sequence (peptide): EANMDDQWMQDEMEIGY

[18] = target: T17, Ala mutant having 3-amino acid substitution, SEQ ID NO: 49 (human); experiment: ELISA, peptide on plate (10 ug/mL)
T17 sequence (peptide): EENMDDQWMQDEMEIAA

[19] = target: Ala mutant SEQ ID NO: 34 (human); experiment: ELISA, peptide on plate (10 ug/mL)
[20] = target: Ala mutant SEQ ID NO: 35 (human); experiment: ELISA, peptide on plate (10 ug/mL)
[21] = target: T18, Ala mutant SEQ ID NO: 43 (human); experiment: ELISA, peptide on plate (10 ug/mL)
T18 sequence (peptide): EENMDDQWMQDEMEIGA

[22] = target: T19, Ala mutant SEQ ID NO: 40 (human); experiment: ELISA, peptide on plate (10 ug/mL)
T19 sequence (peptide): EENMDDQWMQDEMAIGY

[23] = target: T20, Ala mutant SEQ ID NO: 32 (human); experiment: ELISA, peptide on plate (10 ug/mL)
T20 sequence (peptide): EENMDAQWMQDEMEIGY

[24] = target: T21, Ala mutant SEQ ID NO: 42 (human); experiment: ELISA, peptide on plate (10 ug/mL)
T21 sequence (peptide): EENMDDQWMQDEMEIAY

[25] = target: full-length recombinant mouse PAD4 (mouse) (UniProt Q9Z183); experiment: ELISA, mouse PAD4 on plate, antibody 0.0002441 ug/mL
[26] = target: full-length recombinant mouse PAD4 (mouse) (UniProt Q9Z183); experiment: ELISA, mouse PAD4 on plate, antibody 0.0039063 ug/mL
[27] = target: full-length recombinant mouse PAD4 (mouse) (UniProt Q9Z183); experiment: ELISA, mouse PAD4 on plate, antibody 6.104E-05 ug/mL
[28] = target: full-length recombinant mouse PAD4 (mouse) (UniProt Q9Z183); experiment: ELISA, mouse PAD4 on plate, antibody 0.0625 ug/mL
[29] = target: full-length recombinant mouse PAD4 (mouse) (UniProt Q9Z183); experiment: ELISA, mouse PAD4 on plate, antibody 0.015625 ug/mL
[30] = target: full-length recombinant mouse PAD4 (mouse) (UniProt Q9Z183); experiment: ELISA, mouse PAD4 on plate, antibody 1 ug/mL
[31] = target: full-length recombinant mouse PAD4 (mouse) (UniProt Q9Z183); experiment: ELISA, mouse PAD4 on plate, antibody 0.0009766 ug/mL

Sequence of full-length recombinant mouse PAD4 (mouse) (Q9Z183 whole entry): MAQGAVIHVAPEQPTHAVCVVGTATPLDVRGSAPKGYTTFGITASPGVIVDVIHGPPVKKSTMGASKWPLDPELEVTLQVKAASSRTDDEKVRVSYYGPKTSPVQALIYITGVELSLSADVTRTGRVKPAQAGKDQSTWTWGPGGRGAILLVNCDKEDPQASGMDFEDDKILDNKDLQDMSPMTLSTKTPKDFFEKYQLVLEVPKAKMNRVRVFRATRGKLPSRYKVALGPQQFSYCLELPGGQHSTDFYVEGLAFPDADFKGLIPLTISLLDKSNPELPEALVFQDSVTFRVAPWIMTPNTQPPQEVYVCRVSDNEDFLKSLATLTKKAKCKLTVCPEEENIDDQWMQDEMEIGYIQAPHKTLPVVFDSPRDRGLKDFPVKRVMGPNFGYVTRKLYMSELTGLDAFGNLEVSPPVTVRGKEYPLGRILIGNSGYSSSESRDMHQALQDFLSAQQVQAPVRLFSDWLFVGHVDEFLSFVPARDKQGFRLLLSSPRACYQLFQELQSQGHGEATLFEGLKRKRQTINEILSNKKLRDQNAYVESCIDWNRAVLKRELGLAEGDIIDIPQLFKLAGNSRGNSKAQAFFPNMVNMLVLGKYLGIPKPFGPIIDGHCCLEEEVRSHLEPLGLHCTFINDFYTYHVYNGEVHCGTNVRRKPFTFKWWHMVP

Substance: anti-dinitrophenyl (DNP) antibody (negative control)
- absorbance 490 nm/630 nm [1]: 0.023 OD
- absorbance 490 nm/630 nm [2]: 0.008 OD
- absorbance 490 nm/630 nm [3]: 0.011 OD
- absorbance 490 nm/630 nm [4]: 0.052 OD
- absorbance 490 nm/630 nm [5]: 0.004 OD
- absorbance 490 nm/630 nm [6]: 0.054 OD
- absorbance 490 nm/630 nm [7]: 0.01 OD
- absorbance 490 nm/630 nm [8]: 0.008 OD
- absorbance 490 nm/630 nm [9]: 0.001 OD
- absorbance 490 nm/630 nm [10]: 0.009 OD
- absorbance 490 nm/630 nm [11]: 0.012 OD
- absorbance 490 nm/630 nm [12]: 0.007 OD
- absorbance 490 nm/630 nm [13]: 0.052 OD
- absorbance 490 nm/630 nm [14]: 0.052 OD
- absorbance 490 nm/630 nm [15]: 0.01 OD
- absorbance 490 nm/630 nm [16]: 0.052 OD
- absorbance 490 nm/630 nm [17]: 0.001 OD
- absorbance 490 nm/630 nm [18]: 0.065 OD
- absorbance 490 nm/630 nm [19]: 0.017 OD
- absorbance 490 nm/630 nm [20]: 0.011 OD
- absorbance 490 nm/630 nm [21]: 0.057 OD
- absorbance 490 nm/630 nm [22]: 0.011 OD
- absorbance 490 nm/630 nm [23]: 0.012 OD
- absorbance 490 nm/630 nm [24]: 0.017 OD
- absorbance 490 nm/630 nm [25]: 0.034 OD
- absorbance 490 nm/630 nm [26]: 0.024 OD
- absorbance 490 nm/630 nm [27]: 0.011 OD
- absorbance 490 nm/630 nm [28]: 0.02 OD
- absorbance 490 nm/630 nm [29]: 0.018 OD
- absorbance 490 nm/630 nm [30]: 0.028 OD
- absorbance 490 nm/630 nm [31]: 0.021 OD

Reference: patent US20230192890A1
